According to publication PMC6938703 (Science Advances, 2020):

How the values were obtained:
crystal structure = biological target: the molecule itself; assay: crystal structure
SEC-MALS = biological target: the molecule itself; assay: SEC-MALS

Row | Protein | binding result (crystal structure) | binding result (SEC-MALS)
1 | Selenomethionine-substituted dARC1 CA (residues S39 to N205) (domain or fragment, D. melanogaster, selenomethionine in place of methionine) SRGKGNFSACTHSFGGTRDHDVVEEFIGNIETYKDVEGISDENALKGISLLFYGMASTWWQGVRKEATTWKEAIALIREHFSPTKPAYQIYMEFFQNKQDDHDPIDTFVIQKRALLAQLPSGRHDEETELDLLFGLLNIKYRKHISRHSVHTFKDLLEQGRIIEHNNPLE | binds | 
2 | dARC1 CA F133A (domain or fragment, D. melanogaster) SRGKGNFSACTHSFGGTRDHDVVEEFIGNIETYKDVEGISDENALKGISLLFYGMASTWWQGVRKEATTWKEAIALIREHFSPTKPAYQIYMEFAQNKQDDHDPIDTFVIQKRALLAQLPSGRHDEETELDLLFGLLNIKYRKHISRHSVHTFKDLLEQGRIIEHNNPLE |  | binds
